Measurements: US20220213456

System: T1, OMNI-47 (Peptoniphilus obesi ph1)
T1 sequence: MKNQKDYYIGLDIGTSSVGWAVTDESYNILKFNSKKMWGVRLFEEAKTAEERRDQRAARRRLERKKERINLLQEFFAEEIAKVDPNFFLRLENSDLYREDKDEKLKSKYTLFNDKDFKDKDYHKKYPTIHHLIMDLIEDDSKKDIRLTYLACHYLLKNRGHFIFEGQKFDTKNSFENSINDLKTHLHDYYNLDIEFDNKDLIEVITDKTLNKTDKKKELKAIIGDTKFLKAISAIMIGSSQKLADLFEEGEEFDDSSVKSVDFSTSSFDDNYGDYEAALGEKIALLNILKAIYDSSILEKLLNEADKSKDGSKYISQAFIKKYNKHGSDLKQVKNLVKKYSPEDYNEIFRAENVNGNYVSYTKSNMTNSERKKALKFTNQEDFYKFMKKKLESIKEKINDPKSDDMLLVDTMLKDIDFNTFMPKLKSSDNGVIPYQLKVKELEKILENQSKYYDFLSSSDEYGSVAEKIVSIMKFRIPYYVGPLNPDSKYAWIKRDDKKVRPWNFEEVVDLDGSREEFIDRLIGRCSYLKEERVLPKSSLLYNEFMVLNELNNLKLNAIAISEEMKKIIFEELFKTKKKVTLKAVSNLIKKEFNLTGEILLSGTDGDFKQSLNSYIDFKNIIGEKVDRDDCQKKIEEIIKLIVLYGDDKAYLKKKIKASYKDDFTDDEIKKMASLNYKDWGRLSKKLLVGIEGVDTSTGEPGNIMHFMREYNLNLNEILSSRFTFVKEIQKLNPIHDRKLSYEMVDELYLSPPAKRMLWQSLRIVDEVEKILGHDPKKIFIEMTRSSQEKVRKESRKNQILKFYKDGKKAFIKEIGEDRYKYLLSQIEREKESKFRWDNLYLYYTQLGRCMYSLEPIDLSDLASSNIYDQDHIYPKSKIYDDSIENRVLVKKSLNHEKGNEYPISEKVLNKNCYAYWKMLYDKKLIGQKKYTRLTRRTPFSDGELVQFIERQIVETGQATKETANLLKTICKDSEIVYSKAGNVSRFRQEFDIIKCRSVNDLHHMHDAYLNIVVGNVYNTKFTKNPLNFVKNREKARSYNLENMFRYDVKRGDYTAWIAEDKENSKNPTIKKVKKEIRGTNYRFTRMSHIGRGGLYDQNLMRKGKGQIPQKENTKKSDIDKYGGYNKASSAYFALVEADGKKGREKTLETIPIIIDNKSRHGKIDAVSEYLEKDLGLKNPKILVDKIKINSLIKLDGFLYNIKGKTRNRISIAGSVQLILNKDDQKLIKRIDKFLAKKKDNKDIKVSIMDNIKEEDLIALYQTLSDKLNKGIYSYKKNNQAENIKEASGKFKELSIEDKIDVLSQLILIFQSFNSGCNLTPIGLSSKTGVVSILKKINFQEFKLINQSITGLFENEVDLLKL
Assay: cleavage_in_vitro
Conditions: TXTL; PAM NVYR (specific NRTA); V1, V2 tested

Sequence: GGAAGAGCAGAGCCUUGGUCUCGUUUGAGAGUUAUGGAAACAUGAUGAGUUCAAAUAAAAAUUUAUUCAAAUCGCCCAUUAUGGGCCGCAGAUGUUCUGCAUUAUAUGCUUGCAAGUUGCAAGCUUUUUUU / GGAAGAGCAGAGCCTTGGTCTCNNNNNNNN / NNNNNNNNGAGACCAAGGCTCTGCTCTTCC [OMNI-47 T2 sgRNA V1 ; pbPOS T2 protospacer 8N PAM library]
- activity (1-depletion score): 0.98
